From article PMC10975748 (2024) come the findings set out here.

The target in the test is Kv1.2 (Homo sapiens, UniProt P16389). Put plainly: patch-clamp electrophysiology.
Sequence of Kv1.2 (P16389 whole entry): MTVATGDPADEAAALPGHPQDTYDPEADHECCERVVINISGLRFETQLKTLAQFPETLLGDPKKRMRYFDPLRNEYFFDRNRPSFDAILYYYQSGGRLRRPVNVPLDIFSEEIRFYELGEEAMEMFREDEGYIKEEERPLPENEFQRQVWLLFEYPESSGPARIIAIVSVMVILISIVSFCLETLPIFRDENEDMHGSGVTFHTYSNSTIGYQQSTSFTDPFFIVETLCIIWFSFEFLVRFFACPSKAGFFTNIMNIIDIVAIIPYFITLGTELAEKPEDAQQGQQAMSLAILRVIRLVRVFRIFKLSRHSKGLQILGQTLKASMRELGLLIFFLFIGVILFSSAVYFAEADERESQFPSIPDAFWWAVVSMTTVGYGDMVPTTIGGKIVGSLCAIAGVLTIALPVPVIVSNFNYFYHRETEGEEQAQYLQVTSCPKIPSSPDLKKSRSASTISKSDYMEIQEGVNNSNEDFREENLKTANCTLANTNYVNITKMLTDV

In general, Kd refers to the equilibrium constant for the complex coming apart. Lower therefore signals higher affinity. For TFINHKCKSSSECLPACKAAIGRASGKCINSTCKCYY [Cm39], the Kd is 0.065 µM.
